From patent publication US6072039, “Hybrid polypeptide comparing a biotinylated avidin binding polypeptide fused to a polypeptide of interest” (Rohm and Haas Company, dated 2000)

How the values were obtained:
[1] = target: T1, avidin monomer affinity resin (Gallus gallus (Chicken), UniProt P02701); test: avidin monomer affinity column, cyanogen bromide cleavage mixture; by Procedure XI the polypeptide of interest is not retained and is collected in the column flowthrough
Protocol: (§1) The crude extract is applied to a 4 mm×5 cm column packed with avidin monomer affinity resin (U.S. Ser. No. 414,785) on a LKB HPLC system equipped with two Model 2150 pumps, Model 2152 controller, and a Model 2140 spectral detector. Sample absorbance is monitored at 280 nm. The crude extract is applied in 100 mM potassium phosphate buffer, pH 6.8 to 7.2 (or other appropriate buffer at a pH of 4.0 to 11.0) at a flow rate of 0.1 ml/min to a column equilibrated with the same buffer. After the sample is loaded, the column is washed with phosphate buffer at a flow rate of 1 ml/min until absorbance returned to the baseline absorbance, and all nonbound material is washed from the resin. The column is then equilibrated with water, followed by application of 5 ml of 2M NaCl. The column is reequilibrated with water. This same NaCl-water wash procedure is repeated four to five times. The sample is eluted using acetic acid or biotin, as detailed in Procedure IX.
The hybrid polypeptide is dissolved in 70% (v/v) aqueous formic acid at 23° C. A 50 molar excess of cyanogen bromide is added in a small volume of 70% formic acid, with stirring. The mixture is incubated in the dark under nitrogen at 20–25° C. for 16 to 24 hours. The mixture is then diluted with 10 volumes of water and freeze-dried. Highly pure polypeptide of interest is obtained by Procedure VIII.
Procedure XI. […]

[2] = target: T1, avidin monomer affinity resin; test: avidin monomer affinity column, formic acid cleavage mixture; by Procedure XI the polypeptide of interest is not retained and is collected in the column flowthrough
Protocol: as §1
Procedure XI. Separation of the Polypeptide of Interest from the Polypeptide for Attachment The dried polypeptide mixture is resuspended in avidin monomer column loading buffer, 100 mM phosphate buffer pH 6.8–7.2, or other appropriate buffer at a pH of between 4.0 and 11.0. Highly pure polypeptide of interest is obtained by passing the cleaved polypeptide mixture over the avidin resin using the procedure described above. […]

Binder	binding result [1]	binding result [2]
YGGFLTSEKSQTPLVTLFKNAIIKNAYKKGE [β-endorphin cleaved from the hybrid polypeptide by cyanogen bromide (Examples 3 and 6)]	no binding	–
PMYGGFLTSEKSQTPLVTLFKNAIIKNAYKKGE [β-endorphin cleaved from the 1.3S:β-endorphin hybrid by formic acid (Example 2)]	–	no binding
